In US7691806B2, “Repeat sequence protein polymer active agent congjugates, methods and uses” (priority 2003, dated 2010):

System: Human dermal fibroblasts
Assay: Fibroblast cell survival after UVB exposure (MTT assay)
Assay type: cell-based
Conditions: UVB approximately 50 mj/cm^2, treated after exposure, MTT 48 hours later
Description: Construction, analysis and verification of the SELP47K-P4 (SEQ. ID. NO. 36) conjugate proceeded as follows. SELP constructs in which all polymer subunits contain additional P4 (ALSYP) peptide sequences were made as follows: Artificial gene synthesis was used to create a 2 subunit version of the desired construct in which each identical subunit contains a unique non-palindromic restriction site. Specifically, SELP subunits contained either BBI derived P4 sequences (Seq ALSYP) incorporated in two places per subunit, flanking the silk region, incorporated between the C-terminal end of the silk region and the N-terminal end of the elastin region. A BsgI restriction enzyme cleavage site was designed within each subunit. Gene construction was carried out by Blue Heron Biotechnology (Bothell, Wash.). […] Resulting modified SELP monomers as well as plasmid vector were purified from agarose gels and concentrated using a Spin Vac. Monomers were self ligated using T4 DNA ligase (New England Biolabs) as per manufacturer's instructions overnight at 16 C. Original purified vector was added to ligation mix with additional fresh ligase and incubated at 16 C for an additional 24 hrs. Ligation mix was used to transform E. coli TOP10 cells (Invitrogen) as per manufacturer's instructions. Resulting transformants were used to inoculate culture tubes containing 5 ml Luria broth and appropriate antibiotic. […]

B1: SELP47K-P4 (protein)
chain: MDPVVLQRRDWENPGVTQLNRLAAHPPFASDPMGAGAGSGAGAGSALSYPGVGVPGVGVPGVGVPGVGVPGKGVPGVGVPGVGVPGVGVPALSYPGAGAGSGAGAGSGAGAGSGAGAGSALSYPGVGVPGVGVPGVGVPGVGVPGKGVPGVGVPGVGVPGVGVPALSYPGAGAGSGAGAGSGAGAGSGAGAGSALSYPGVGVPGVGVPGVGVPGVGVPGKGVPGVGVPGVGVPGVGVPALSYPGAGAGSGAGAGSGAGAGSGAGAGSALSYPGVGVPGVGVPGVGVPGVGVPGKGVPGVGVPGVGVPGVGVPALSYPGAGAGSGAGAGSGAGAGSGAGAGSALSYPGVGVPGVGVPGVGVPGVGVPGKGVPGVGVPGVGVPGVGVPALSYPGAGAGSGAGAGSGAGAGSGAGAGSALSYPGVGVPGVGVPGVGVPGVGVPGKGVPGVGVPGVGVPGVGVPALSYPGAGAGSGAGAGSGAGAGSGAGAGSALSYPGVGVPGVGVPGVGVPGVGVPGKGVPGVGVPGVGVPGVGVPALSYPGAGAGSGAGAGSGAGAGSGAGAGSALSYPGVGVPGVGVPGVGVPGVGVPGKGVPGVGVPGVGVPGVGVPALSYPGAGAGSGAGAGSGAGAGSGAGAGSALSYPGVGVPGVGVPGVGVPGVGVPGKGVPGVGVPGVGVPGVGVPALSYPGAGAGSGAGAGSGAGAGSGAGAGSALSYPGVGVPGVGVPGVGVPGVGVPGKGVPGVGVPGVGVPGVGVPALSYPGAGAGSGAGAGSGAGAGSGAGAGSALSYPGVGVPGVGVPGVGVPGVGVPGKGVPGVGVPGVGVPGVGVPALSYPGAGAGSGAGAGSGAGAGSGAGAGSALSYPGVGVPGVGVPGVGVPGVGVPGKGVPGVGVPGVGVPGVGVPALSYPGAGAGSGAGAGSGAGAGSGAGAGSALSYPGVGVPGVGVPGVGVPGVGVPGKGVPGVGVPGVGVPGVGVPALSYPGAGAGSGAGAGSGAGAMDPGRYQDLRSHHHHHH
modifications: P4-SELP47K silk, elastin ad UV-protective peptides
  viability improvement of UV treated human fibroblast cells: 100%
